Experiment [1] concerns the target T1, soluble ectodomain of human aminopeptidase N (hAPN), residues 66–967, WT (human, UniProt P15144 66-967). In words: SPR. The note with it: both partners purified.
The target in experiment [2] is T1, soluble ectodomain of human …. In words: SPR. The note with it: both partners purified. The source holds these as a separate data set.

T1 sequence (P15144 66-967): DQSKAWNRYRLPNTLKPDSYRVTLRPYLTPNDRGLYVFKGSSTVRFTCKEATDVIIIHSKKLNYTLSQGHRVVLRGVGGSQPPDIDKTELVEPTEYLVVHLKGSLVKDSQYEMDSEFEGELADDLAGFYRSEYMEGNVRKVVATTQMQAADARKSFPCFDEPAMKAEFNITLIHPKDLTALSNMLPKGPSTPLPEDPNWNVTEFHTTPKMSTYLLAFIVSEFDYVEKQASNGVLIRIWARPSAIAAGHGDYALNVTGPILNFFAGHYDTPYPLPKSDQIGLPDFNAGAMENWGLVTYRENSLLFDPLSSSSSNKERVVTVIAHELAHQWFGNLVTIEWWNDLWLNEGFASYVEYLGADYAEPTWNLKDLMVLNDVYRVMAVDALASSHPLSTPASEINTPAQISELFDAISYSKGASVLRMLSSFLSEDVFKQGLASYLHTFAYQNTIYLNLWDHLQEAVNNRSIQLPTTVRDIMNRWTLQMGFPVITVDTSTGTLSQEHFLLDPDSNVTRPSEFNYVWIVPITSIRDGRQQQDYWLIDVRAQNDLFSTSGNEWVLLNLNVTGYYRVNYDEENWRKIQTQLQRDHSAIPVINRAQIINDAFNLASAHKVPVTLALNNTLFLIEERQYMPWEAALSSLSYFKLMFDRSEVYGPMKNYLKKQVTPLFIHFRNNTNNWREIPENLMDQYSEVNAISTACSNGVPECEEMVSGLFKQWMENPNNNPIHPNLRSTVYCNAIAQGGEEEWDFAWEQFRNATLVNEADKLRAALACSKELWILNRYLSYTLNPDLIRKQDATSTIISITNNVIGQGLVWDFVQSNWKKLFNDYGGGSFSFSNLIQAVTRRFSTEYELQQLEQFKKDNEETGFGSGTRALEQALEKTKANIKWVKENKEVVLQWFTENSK

B1: HCoV-229E S-protein receptor-binding domain (RBD), residues 293–435, WT (Class I) (domain or fragment)
chain: LPVYHKHTFIVLYVDFKPQSGGGKCFNCYPAGVNITLANFNETKGPLCVDTSHFTTKYVAVYANVGRWSASINTGNCPFSFGKVNNFVKFGSVCFSLKDIPGGCAMPIVANWAYSKYYTIGSLYVSWSDGDGITGVPQPVEGV
In experiment [1], B1 showed a Kd of 434 nM, a koff of 0.16 s⁻¹ and a kon of 360000 M⁻¹ s⁻¹. In experiment [2], the Kd worked out at 430 nM, the koff amounted to 0.16 s⁻¹ and the kon was found to be 360000 M⁻¹ s⁻¹.

B2: HCoV-229E S-protein S1 region, residues 17–560, WT (domain or fragment)
chain: QTTNGLNTSYSVCNGCVGYSENVFAVESGGYIPSDFAFNNWFLLTNTSSVVDGVVRSFQPLLLNCLWSVSGLRFTTGFVYFNGTGRGDCKGFSSDVLSDVIRYNLNFEENLRRGTILFKTSYGVVVFYCTNNTLVSGDAHIPFGTVLGNFYCFVNTTIGNETTSAFVGALPKTVREFVISRTGHFYINGYRYFTLGNVEAVNFNVTTAETTDFCTVALASYADVLVNVSQTSIANIIYCNSVINRLRCDQLSFDVPDGFYSTSPIQSVELPVSIVSLPVYHKHTFIVLYVDFKPQSGGGKCFNCYPAGVNITLANFNETKGPLCVDTSHFTTKYVAVYANVGRWSASINTGNCPFSFGKVNNFVKFGSVCFSLKDIPGGCAMPIVANWAYSKYYTIGSLYVSWSDGDGITGVPQPVEGVSSFMNVTLDKCTKYNIYDVSGVGVIRVSNDTFLNGITYTSTSGNLLGFKDVTKGTIYSITPCNPPDQLVVYQQAVVGAMLSENFTSYGFSNVVELPKFFYASNGTYNCTDAVLTYSSFGVCADGS
Regarding B2, in experiment [2], binding was put at a Kd of 1630 nM, the koff stood at 0.06 s⁻¹ and the kon came to 39000 M⁻¹ s⁻¹.

(Values after PMC5701055 (Nature Communications, 2017).)
